The results in this text go back to patent US20180244760A1 (UNIVERSITY OF MARYLAND BALTIMORE, published 2018).

Assay [1] concerns the target T1, Clostridium difficile toxin B (TcdB) (Clostridium difficile, UniProt P18177 2-2366). The experiment in a line: cell-based or functional assay.
For assay [2], the target named is T1, Clostridium difficile toxin B (TcdB). The assay can be described thus: sandwich ELISA: TcdB coated, Habab titrated, TcdA at 40 ng/ml detected. In general terms: An ELISA detects its analyte on a solid surface through an enzyme-linked reagent.
For assay [3] the target is unchanged. The assay can be described thus: ELISA, plate coated with 1 ug/ml TcdB.

T1 sequence (P18177 2-2366 limits assumed): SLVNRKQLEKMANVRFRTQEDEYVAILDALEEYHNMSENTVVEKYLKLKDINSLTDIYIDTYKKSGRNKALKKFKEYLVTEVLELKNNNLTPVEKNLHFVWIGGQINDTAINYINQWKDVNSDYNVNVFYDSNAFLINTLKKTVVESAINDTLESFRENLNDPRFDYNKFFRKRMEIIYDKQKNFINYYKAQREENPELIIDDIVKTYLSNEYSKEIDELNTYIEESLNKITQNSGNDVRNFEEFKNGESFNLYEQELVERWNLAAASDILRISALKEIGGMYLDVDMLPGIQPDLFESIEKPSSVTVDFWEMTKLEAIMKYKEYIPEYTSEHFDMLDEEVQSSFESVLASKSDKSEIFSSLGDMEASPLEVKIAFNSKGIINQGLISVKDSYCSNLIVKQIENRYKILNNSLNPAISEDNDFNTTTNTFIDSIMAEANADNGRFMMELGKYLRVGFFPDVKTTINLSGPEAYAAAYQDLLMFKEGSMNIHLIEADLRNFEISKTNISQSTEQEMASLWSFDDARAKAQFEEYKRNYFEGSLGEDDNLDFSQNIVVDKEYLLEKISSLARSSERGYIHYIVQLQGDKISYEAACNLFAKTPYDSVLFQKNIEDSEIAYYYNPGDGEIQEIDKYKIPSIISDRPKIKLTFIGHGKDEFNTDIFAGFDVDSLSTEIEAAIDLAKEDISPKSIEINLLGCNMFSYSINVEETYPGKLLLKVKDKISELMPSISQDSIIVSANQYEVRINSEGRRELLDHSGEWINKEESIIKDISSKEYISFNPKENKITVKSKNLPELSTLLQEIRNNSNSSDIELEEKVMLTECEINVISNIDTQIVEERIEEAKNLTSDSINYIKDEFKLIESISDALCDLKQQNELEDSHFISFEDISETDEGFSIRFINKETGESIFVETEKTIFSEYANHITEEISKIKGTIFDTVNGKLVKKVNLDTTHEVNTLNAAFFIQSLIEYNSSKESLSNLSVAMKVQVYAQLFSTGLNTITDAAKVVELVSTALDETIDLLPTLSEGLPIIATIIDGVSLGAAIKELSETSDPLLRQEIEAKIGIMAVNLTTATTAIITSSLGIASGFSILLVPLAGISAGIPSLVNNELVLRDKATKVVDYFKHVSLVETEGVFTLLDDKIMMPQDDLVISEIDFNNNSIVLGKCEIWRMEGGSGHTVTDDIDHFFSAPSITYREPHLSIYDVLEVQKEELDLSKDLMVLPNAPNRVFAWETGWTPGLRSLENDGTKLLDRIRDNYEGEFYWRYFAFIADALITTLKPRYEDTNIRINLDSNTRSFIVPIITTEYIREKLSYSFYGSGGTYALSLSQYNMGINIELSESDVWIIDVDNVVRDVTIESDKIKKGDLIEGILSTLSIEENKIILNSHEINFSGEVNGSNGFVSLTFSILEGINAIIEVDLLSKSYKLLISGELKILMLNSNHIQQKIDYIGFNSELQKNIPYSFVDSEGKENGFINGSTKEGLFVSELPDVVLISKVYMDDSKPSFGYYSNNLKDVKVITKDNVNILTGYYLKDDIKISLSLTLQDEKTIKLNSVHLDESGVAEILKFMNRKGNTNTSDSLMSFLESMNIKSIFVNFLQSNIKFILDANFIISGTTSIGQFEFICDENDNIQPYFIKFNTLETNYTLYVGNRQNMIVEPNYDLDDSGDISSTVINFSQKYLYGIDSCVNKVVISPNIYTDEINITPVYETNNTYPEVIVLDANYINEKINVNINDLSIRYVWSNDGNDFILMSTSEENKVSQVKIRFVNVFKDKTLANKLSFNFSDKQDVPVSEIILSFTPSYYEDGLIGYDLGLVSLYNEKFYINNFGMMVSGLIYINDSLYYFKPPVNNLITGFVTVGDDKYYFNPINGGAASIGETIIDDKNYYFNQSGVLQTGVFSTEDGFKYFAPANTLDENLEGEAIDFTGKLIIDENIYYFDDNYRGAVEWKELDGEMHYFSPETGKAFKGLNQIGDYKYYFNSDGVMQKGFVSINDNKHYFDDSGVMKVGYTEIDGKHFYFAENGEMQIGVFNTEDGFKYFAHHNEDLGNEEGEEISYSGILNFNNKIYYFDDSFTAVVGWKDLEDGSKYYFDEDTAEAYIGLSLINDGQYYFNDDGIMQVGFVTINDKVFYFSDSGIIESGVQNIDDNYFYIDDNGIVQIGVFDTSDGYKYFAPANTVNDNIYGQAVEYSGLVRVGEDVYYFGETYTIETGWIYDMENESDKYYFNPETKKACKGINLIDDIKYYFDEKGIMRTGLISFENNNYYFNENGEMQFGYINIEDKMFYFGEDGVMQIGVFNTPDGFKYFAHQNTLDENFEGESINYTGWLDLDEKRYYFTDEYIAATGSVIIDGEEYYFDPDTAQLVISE

B1: ABAB-IgG1 tetra-specific, octameric binding agent (bispecific antibody)
heavy: not shown
light: QLQLVETGGGLVQPGGSLRLSCAASGFTFSDYVMTWVRQAPGKGPEWIATINTDGSTMRDDSTKGRFTISRDNAKNTLYLQMTSLKPEDTALYYCARGRVISASAIRGAVRGPGTQVTVSSGGGGSGGGGSGGGGSQVQLVESGGGLVQTGGSLRLSCASSGSIAGFETVTWSRQAPGKSLQWVASMTKTNNEIYSDSVKGRFIISRDNAKNTVYLQMNSLKPEDTGVYFCKGPELRGQGIQVTVSSRTVAAPSVFIFPPSDEQLKSGTASVVCLLNNFYPREAKVQWKVDNALQSGNSQESVTEQDSKDSTYSLSSTLTLSKADYEKHKVYACEVTHQGLSSPVTKSFNRGEC
notes: also called IgG-ABAB; IgG-ABBA
Broadly, the EC50 (read off the curve) is the concentration needed to bring the measured effect to its halfway point. A higher EC50 (read off the curve) goes with lower potency in that assay. As for B1, in assay [1], the “neutralization of the TcdB cytopathic effect on Vero cells, fold potency over the Merck antibody” value was not below 1000 fold. Further, the “EC50 (read off the curve)” value in assay [2] is approximately 0.05 µg/mL.

B2: VHH peptide monomer E3 (VHH)
VHH: QVQLVESGGGLVQTGGSLRLSCASSGSIAGFETVTWSRQAPGKSLQWVASMTKTNNEIYSDSVKGRFIISRDNAKNTVYLQMNSLKPEDTGVYFCKGPELRGQGIQVTVSS
notes: also called VHH E3
As to B2, the “EC50 (read off the curve)” value in assay [3] is approximately 0.01 µg/mL.
